# Reference: patent publication US20150344570A1 (published 2015)
# T1: FcγRIIa R (FcγRIIa, allotype with Arg at position 131), extracellular domain with C-terminal His tag (human, UniProt P12318 34-217)
# T1 construct: extracellular domain; also called FcγRIIa R type; 2aR
# T1 sequence (looked up): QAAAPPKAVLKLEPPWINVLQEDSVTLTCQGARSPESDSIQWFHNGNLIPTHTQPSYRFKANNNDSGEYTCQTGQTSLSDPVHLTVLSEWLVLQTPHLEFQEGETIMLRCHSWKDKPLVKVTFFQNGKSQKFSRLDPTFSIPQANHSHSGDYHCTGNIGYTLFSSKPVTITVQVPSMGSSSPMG
# B1: GpH7-A5/GpH7-B3 variant P331_06M/GpL16-k0 (antibody, human IgG1, kappa)
# heavy 1: not shown
# heavy 2: not shown
# light: DIVMTQSPLSLPVTPGEPASISCQASESLVHSNRNTYLHWYLQKPGQSPQLLIYKVSNRFSGVPDRFSGSGSGTDFTLKISRVEAEDVGVYYCSQNTHVPPTFGQGTKVEIERTVAAPSVFIFPPSDEQLKSGTASVVCLLNNFYPREAKVQWKVDNALQSGNSQESVTEQDSKDSTYSLSSTLTLSKADYEKHKVYACEVTHQGLSSPVTKSFNRGEC
# notes: also called He Ab
# B2: GpH7-B3 variant T335_16H/GpL16-k0 (antibody, human IgG1, kappa)
# heavy: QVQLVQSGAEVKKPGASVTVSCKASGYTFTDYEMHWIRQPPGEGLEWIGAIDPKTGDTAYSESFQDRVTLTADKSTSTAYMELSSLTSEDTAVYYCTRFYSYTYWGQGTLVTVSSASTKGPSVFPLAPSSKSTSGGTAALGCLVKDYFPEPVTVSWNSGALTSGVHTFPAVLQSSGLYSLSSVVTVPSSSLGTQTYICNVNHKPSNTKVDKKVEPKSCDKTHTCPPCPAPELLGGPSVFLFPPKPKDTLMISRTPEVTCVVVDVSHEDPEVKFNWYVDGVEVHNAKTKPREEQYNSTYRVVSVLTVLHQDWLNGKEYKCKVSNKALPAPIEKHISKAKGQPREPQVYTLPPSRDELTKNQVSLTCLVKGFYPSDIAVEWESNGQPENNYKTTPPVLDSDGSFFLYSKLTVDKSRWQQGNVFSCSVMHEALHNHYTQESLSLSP
# light: B1 light
# notes: also called Ho Ab
# B3: GpH7-B3 variant S337_06M/GpL16-k0 (antibody, human IgG1, kappa)
# heavy: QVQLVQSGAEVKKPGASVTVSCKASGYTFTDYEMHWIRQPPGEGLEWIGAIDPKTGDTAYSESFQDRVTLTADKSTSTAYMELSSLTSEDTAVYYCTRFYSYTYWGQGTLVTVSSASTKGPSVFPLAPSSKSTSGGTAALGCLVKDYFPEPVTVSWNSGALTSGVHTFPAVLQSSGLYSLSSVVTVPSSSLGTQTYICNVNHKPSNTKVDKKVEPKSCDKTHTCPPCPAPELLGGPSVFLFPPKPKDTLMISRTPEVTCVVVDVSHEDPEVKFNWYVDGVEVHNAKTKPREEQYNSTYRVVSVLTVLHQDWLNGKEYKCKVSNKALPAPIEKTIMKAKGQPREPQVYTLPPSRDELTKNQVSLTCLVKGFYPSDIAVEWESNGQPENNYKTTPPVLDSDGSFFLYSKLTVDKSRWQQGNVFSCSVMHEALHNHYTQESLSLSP
# light: B1 light
# notes: also called Ho Ab
# B4: GpH7-A5/GpH7-B3 variant P331_13S/GpL16-k0 (antibody, human IgG1, kappa)
# heavy 1: not shown
# heavy 2: not shown
# light: B1 light
# notes: also called He Ab
# B5: GpH7-B3 variant S337_15Y/GpL16-k0 (antibody, human IgG1, kappa)
# heavy: not shown
# light: B1 light
# notes: also called Ho Ab
# B6: GpH7-B3 variant S337_03V/GpL16-k0 (antibody, human IgG1, kappa)
# heavy: not shown
# light: B1 light
# notes: also called Ho Ab
# B7: GpH7-B3 variant S337_12R/GpL16-k0 (antibody, human IgG1, kappa)
# heavy: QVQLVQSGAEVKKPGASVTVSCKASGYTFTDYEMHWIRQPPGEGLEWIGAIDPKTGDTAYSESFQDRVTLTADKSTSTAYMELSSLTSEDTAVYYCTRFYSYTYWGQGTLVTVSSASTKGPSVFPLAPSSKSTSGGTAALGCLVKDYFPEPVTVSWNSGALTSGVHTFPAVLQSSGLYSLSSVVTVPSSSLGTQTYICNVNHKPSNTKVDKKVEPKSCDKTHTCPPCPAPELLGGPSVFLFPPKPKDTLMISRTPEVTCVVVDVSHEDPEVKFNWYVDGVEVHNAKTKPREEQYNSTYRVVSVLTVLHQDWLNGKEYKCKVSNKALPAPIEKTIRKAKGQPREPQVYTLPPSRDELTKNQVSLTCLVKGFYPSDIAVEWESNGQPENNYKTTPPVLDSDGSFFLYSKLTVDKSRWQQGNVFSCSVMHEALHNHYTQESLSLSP
# light: B1 light
# notes: also called Ho Ab
# B8: GpH7-A5/GpH7-B3 variant P331_15Y/GpL16-k0 (antibody, human IgG1, kappa)
# heavy 1: not shown
# heavy 2: not shown
# light: B1 light
# notes: also called He Ab
# B9: GpH7-B3 variant S337_07I/GpL16-k0 (antibody, human IgG1, kappa)
# heavy: not shown
# light: B1 light
# notes: also called Ho Ab
# B10: GpH7-B3 variant V266_06M/GpL16-k0 (antibody, human IgG1, kappa)
# heavy: not shown
# light: B1 light
# notes: also called Ho Ab
# B11: GpH7-B3 variant S337_11K/GpL16-k0 (antibody, human IgG1, kappa)
# heavy: not shown
# light: B1 light
# notes: also called Ho Ab
# B12: GpH7-B3 variant T335_02A/GpL16-k0 (antibody, human IgG1, kappa)
# heavy: not shown
# light: B1 light
# notes: also called Ho Ab
# B13: GpH7-A5/GpH7-B3 variant P331_14T/GpL16-k0 (antibody, human IgG1, kappa)
# heavy 1: not shown
# heavy 2: not shown
# light: B1 light
# notes: also called He Ab
# B14: GpH7-A5/GpH7-B3 variant P331_07I/GpL16-k0 (antibody, human IgG1, kappa)
# heavy 1: not shown
# heavy 2: not shown
# light: B1 light
# notes: also called He Ab
# B15: GpH7-B3 variant Y296_09D/GpL16-k0 (antibody, human IgG1, kappa)
# heavy: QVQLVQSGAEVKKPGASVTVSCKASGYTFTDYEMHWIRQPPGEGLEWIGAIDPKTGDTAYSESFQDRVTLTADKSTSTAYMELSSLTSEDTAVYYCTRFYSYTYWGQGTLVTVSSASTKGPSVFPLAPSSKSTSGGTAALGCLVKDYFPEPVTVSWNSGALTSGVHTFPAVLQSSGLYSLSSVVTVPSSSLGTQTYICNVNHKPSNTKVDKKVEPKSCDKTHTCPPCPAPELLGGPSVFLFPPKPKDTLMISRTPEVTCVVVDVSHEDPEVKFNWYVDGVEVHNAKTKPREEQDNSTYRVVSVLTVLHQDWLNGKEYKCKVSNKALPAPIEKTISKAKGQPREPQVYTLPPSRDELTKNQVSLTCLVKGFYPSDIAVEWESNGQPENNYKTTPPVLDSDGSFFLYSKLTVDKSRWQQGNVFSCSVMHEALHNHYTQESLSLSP
# light: B1 light
# notes: also called Ho Ab
# B16: GpH7-B3 variant T335_19Q/GpL16-k0 (antibody, human IgG1, kappa)
# heavy: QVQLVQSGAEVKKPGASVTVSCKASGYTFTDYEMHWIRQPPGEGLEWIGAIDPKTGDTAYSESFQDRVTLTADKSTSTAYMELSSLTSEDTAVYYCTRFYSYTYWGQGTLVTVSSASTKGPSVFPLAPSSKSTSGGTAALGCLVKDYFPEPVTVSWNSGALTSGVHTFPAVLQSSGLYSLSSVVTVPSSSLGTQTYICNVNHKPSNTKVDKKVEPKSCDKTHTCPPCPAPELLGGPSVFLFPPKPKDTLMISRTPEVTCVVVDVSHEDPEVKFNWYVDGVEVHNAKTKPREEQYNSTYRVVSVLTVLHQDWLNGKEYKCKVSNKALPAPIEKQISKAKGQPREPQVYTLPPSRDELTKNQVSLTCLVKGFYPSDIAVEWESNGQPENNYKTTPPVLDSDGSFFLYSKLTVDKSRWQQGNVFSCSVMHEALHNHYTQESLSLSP
# light: B1 light
# notes: also called Ho Ab
# B17: GpH7-B3 variant S267_06M/GpL16-k0 (antibody, human IgG1, kappa)
# heavy: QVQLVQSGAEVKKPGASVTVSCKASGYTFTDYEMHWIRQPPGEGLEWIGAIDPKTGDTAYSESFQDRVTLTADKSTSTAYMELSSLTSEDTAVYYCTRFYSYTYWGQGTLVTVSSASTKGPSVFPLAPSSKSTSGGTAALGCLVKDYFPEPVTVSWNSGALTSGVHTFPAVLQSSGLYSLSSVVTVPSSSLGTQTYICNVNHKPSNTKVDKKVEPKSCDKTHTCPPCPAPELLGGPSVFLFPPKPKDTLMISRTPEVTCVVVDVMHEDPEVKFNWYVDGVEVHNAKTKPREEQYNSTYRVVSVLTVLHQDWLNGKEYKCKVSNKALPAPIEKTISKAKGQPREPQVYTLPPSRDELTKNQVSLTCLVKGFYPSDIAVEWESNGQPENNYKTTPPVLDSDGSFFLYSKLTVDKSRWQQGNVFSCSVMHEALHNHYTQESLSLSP
# light: B1 light
# notes: also called Ho Ab
# B18: GpH7-B3 variant Y296_20W/GpL16-k0 (antibody, human IgG1, kappa)
# heavy: not shown
# light: B1 light
# notes: also called Ho Ab
# B19: GpH7-B3 variant T335_15Y/GpL16-k0 (antibody, human IgG1, kappa)
# heavy: not shown
# light: B1 light
# notes: also called Ho Ab
# B20: GpH7-B3 variant S337_09D/GpL16-k0 (antibody, human IgG1, kappa)
# heavy: not shown
# light: B1 light
# notes: also called Ho Ab
# B21: GpH7-B3 variant S267_19Q/GpL16-k0 (antibody, human IgG1, kappa)
# heavy: not shown
# light: B1 light
# notes: also called Ho Ab
# B22: GpH7-B3 variant S337_16H/GpL16-k0 (antibody, human IgG1, kappa)
# heavy: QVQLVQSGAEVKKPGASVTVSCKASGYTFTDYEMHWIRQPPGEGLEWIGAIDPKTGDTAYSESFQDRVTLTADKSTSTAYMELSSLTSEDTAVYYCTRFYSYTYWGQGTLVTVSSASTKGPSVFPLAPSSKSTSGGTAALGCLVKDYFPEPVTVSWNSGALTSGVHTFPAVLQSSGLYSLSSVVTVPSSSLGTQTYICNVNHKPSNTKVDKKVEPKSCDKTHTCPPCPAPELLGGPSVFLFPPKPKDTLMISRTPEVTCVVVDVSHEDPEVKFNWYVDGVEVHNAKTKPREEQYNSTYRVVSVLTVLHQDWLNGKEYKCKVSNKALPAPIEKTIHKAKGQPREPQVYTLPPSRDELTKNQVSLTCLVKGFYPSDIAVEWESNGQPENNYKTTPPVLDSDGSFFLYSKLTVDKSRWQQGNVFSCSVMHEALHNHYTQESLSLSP
# light: B1 light
# notes: also called Ho Ab
# B23: GpH7-B3 variant T335_05P/GpL16-k0 (antibody, human IgG1, kappa)
# heavy: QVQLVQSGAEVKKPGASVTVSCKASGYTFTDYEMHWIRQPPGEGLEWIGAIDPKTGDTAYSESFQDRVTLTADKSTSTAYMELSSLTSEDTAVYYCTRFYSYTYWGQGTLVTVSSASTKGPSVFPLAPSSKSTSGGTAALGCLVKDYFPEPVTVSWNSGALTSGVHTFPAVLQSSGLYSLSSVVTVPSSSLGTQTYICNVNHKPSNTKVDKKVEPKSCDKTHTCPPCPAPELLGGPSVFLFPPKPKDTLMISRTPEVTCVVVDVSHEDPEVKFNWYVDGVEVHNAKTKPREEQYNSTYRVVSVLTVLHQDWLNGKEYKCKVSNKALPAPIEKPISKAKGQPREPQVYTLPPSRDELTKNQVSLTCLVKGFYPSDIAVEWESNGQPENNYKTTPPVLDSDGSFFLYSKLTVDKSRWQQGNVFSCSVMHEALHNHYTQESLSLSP
# light: B1 light
# notes: also called Ho Ab
# B24: GpH7-B3 variant Y296_06M/GpL16-k0 (antibody, human IgG1, kappa)
# heavy: not shown
# light: B1 light
# notes: also called Ho Ab
# B25: GpH7-B3 variant T335_12R/GpL16-k0 (antibody, human IgG1, kappa)
# heavy: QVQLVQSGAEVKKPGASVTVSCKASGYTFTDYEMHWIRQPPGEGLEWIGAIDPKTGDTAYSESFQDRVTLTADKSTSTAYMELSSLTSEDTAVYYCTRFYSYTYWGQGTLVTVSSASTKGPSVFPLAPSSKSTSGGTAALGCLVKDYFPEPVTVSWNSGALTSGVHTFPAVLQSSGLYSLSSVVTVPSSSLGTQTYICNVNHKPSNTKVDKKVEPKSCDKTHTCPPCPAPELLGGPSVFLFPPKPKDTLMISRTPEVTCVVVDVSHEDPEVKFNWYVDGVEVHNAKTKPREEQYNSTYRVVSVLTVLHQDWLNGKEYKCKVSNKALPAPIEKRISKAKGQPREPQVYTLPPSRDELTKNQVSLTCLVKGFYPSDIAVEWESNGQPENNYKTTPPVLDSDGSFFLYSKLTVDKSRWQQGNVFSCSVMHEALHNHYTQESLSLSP
# light: B1 light
# notes: also called Ho Ab
# B26: GpH7-B3 variant T335_01G/GpL16-k0 (antibody, human IgG1, kappa)
# heavy: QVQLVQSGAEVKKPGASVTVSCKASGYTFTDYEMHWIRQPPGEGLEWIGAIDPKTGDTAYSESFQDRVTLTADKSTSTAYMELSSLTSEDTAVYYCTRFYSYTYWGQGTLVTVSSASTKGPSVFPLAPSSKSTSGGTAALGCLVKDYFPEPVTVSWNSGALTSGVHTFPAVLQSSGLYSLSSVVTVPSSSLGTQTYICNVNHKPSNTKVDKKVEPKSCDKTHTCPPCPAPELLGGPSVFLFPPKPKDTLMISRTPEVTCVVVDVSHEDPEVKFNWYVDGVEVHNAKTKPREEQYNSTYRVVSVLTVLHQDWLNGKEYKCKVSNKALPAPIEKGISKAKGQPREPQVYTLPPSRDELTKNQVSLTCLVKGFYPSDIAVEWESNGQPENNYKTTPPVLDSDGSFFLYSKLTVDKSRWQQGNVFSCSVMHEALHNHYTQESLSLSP
# light: B1 light
# notes: also called Ho Ab
# B27: GpH7-B3 variant T335_13S/GpL16-k0 (antibody, human IgG1, kappa)
# heavy: not shown
# light: B1 light
# notes: also called Ho Ab
# B28: GpH7-B3 variant Y296_14T/GpL16-k0 (antibody, human IgG1, kappa)
# heavy: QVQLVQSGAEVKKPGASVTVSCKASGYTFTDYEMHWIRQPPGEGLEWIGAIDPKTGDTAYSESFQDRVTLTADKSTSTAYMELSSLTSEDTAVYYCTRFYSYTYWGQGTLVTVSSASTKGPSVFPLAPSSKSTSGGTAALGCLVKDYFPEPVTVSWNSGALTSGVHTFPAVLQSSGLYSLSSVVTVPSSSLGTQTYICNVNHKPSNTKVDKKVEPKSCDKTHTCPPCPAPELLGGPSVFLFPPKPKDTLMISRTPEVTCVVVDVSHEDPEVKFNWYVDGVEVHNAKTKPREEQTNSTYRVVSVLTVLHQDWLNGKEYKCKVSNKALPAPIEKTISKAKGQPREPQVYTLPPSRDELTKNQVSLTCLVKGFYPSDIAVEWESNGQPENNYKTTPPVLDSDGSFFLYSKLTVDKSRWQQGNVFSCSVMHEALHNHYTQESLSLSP
# light: B1 light
# notes: also called Ho Ab
# Target: T1, FcγRIIa R (FcγRIIa, allotype with Arg …)
# Assay: SPR (Biacore), antibody captured on antigen peptide chip, FcγR as analyte; relative binding
# Protocol: Analysis of interaction between objective antibody and the FcγR was carried out using Biacore T100 (GE Healthcare). HBS-EP+ (GE Healthcare) was used as the running buffer, and the measurement temperature was set to 25° C. Chips produced by immobilizing the antigen peptide by the amine coupling method to a Series S Sencor Chip CM5 (GE Healthcare), or alternatively, chips produced by allowing preliminarily biotinylated antigen peptides to interact with and immobilize onto a Series S Sensor Chip SA (certified) (GE Healthcare) were used. Antibodies of interest were captured onto an antigen peptide-immobilized chip, and allowed to interact to each FcγR diluted with running buffer. To regenerate and repeatedly use the chip, the antibodies captured on the chip were washed off by reacting 10 mM glycine-HCl, pH 1.5.
He/Con_2aR,Ho/Con_2aR,Binder
106 % of GpH7-A5/GpH7-B3/GpL16-k0 (=100),,B1
,102 % of GpH7-B3/GpL16-k0 (=100),B2
,101 % of GpH7-B3/GpL16-k0 (=100),B3
105 % of GpH7-A5/GpH7-B3/GpL16-k0 (=100),,B4
,100 % of GpH7-B3/GpL16-k0 (=100),B5
,102 % of GpH7-B3/GpL16-k0 (=100),B6
,100 % of GpH7-B3/GpL16-k0 (=100),B7
112 % of GpH7-A5/GpH7-B3/GpL16-k0 (=100),,B8
,103 % of GpH7-B3/GpL16-k0 (=100),B9
,146 % of GpH7-B3/GpL16-k0 (=100),B10
,94.6 % of GpH7-B3/GpL16-k0 (=100),B11
,102 % of GpH7-B3/GpL16-k0 (=100),B12
104 % of GpH7-A5/GpH7-B3/GpL16-k0 (=100),,B13
110 % of GpH7-A5/GpH7-B3/GpL16-k0 (=100),,B14
,94.5 % of GpH7-B3/GpL16-k0 (=100),B15
,102 % of GpH7-B3/GpL16-k0 (=100),B16
,102 % of GpH7-B3/GpL16-k0 (=100),B17
,107 % of GpH7-B3/GpL16-k0 (=100),B18
,107 % of GpH7-B3/GpL16-k0 (=100),B19
,114 % of GpH7-B3/GpL16-k0 (=100),B20
,110 % of GpH7-B3/GpL16-k0 (=100),B21
,107 % of GpH7-B3/GpL16-k0 (=100),B22
,104 % of GpH7-B3/GpL16-k0 (=100),B23
,84 % of GpH7-B3/GpL16-k0 (=100),B24
,94 % of GpH7-B3/GpL16-k0 (=100),B25
,97.7 % of GpH7-B3/GpL16-k0 (=100),B26
,102 % of GpH7-B3/GpL16-k0 (=100),B27
,90.3 % of GpH7-B3/GpL16-k0 (=100),B28
